# According to publication PMC12168134, “Improving the solubility of single domain antibodies using VH‐like hallmark residues” (Protein Science : A Publication of the Protein Society, 2025):
# Experiments:
# [1] = target: the molecule itself; assay: SEC; Hiload 16/600 Superdex 200 pg in PBS; Nlgn2 extracellular domain with His6
# [2] = target: the molecule itself; assay: SEC; Nlgn2 with Avitag; 10 mM HEPES-NaOH pH 7.4, 150 mM NaCl, 3 mM CaCl2
Protein,stoichiometry N [1],stoichiometry N [2]
"Nlgn2 extracellular domain with His6 tag in the C-terminus (domain or fragment, mouse, UniProt Q69ZK9 15-678, looked up, Neuroligin 2 (Nlgn2), mouse, extracellular domain, residues 15-678; Construct used to immunise the alpaca; main SEC peak was a dimer; also called recombinant Nlgn2 extracellular domain; mouse Nlgn2 (15-678); source: Expi293F cells, supernatant, purified (Ni-NTA, SEC); not shown: His6, C-terminal, kept) QRGGGGPGGGAPGGPGLGLGSLGEERFPVVNTAYGRVRGVRRELNNEILGPVVQFLGVPYATPPLGARRFQPPEAPASWPGVRNATTLPPACPQNLHGALPAIMLPVWFTDNLEAAATYVQNQSEDCLYLNLYVPTEDGPLTKKRDEATLNPPDTDIRDSGKKPVMLFLHGGSYMEGTGNMFDGSVLAAYGNVIVVTLNYRLGVLGFLSTGDQAAKGNYGLLDQIQALRWLSENIAHFGGDPERITIFGSGAGASCVNLLILSHHSEGLFQKAIAQSGTAISSWSVNYQPLKYTRLLAAKVGCDREDSTEAVECLRRKSSRELVDQDVQPARYHIAFGPVVDGDVVPDDPEILMQQGEFLNYDMLIGVNQGEGLKFVEDSAESEDGVSASAFDFTVSNFVDNLYGYPEGKDVLRETIKFMYTDWADRDNGEMRRKTLLALFTDHQWVAPAVATAKLHADYQSPVYFYTFYHHCQAEGRPEWADAAHGDELPYVFGVPMVGATDLFPCNFSKNDVMLSAVVMTYWTNFAKTGDPNQPVPQDTKFIHTKPNRFEEVVWSKFNSKEKQYLHIGLKPRVRDNYRANKVAFWLELVPHLHNLHTELFTTTTRLPPYATRWPPRTPGPGTSGTRRPPPPATLPPESDIDLGPRAYDRFPGDSRDYSTELS",2,–
"Biotinylated recombinant Nlgn2 extracellular domain with Avitag (domain or fragment, mouse, UniProt Q69ZK9 15-678, looked up, biotin on the Avitag (biotinylated with BirA), Neuroligin 2 (Nlgn2), extracellular domain; residues 15-678 of mouse Nlgn2 are stated only for the His6 construct used for immunisation, not for this Avitag construct; probably the same; Eluted as a dimeric peak in SEC; also called Nlgn2 with Avitag; Biotinylated Nlgn2; source: purified by SEC, biotinylated with BirA; not shown: Avitag, C-terminal, kept) QRGGGGPGGGAPGGPGLGLGSLGEERFPVVNTAYGRVRGVRRELNNEILGPVVQFLGVPYATPPLGARRFQPPEAPASWPGVRNATTLPPACPQNLHGALPAIMLPVWFTDNLEAAATYVQNQSEDCLYLNLYVPTEDGPLTKKRDEATLNPPDTDIRDSGKKPVMLFLHGGSYMEGTGNMFDGSVLAAYGNVIVVTLNYRLGVLGFLSTGDQAAKGNYGLLDQIQALRWLSENIAHFGGDPERITIFGSGAGASCVNLLILSHHSEGLFQKAIAQSGTAISSWSVNYQPLKYTRLLAAKVGCDREDSTEAVECLRRKSSRELVDQDVQPARYHIAFGPVVDGDVVPDDPEILMQQGEFLNYDMLIGVNQGEGLKFVEDSAESEDGVSASAFDFTVSNFVDNLYGYPEGKDVLRETIKFMYTDWADRDNGEMRRKTLLALFTDHQWVAPAVATAKLHADYQSPVYFYTFYHHCQAEGRPEWADAAHGDELPYVFGVPMVGATDLFPCNFSKNDVMLSAVVMTYWTNFAKTGDPNQPVPQDTKFIHTKPNRFEEVVWSKFNSKEKQYLHIGLKPRVRDNYRANKVAFWLELVPHLHNLHTELFTTTTRLPPYATRWPPRTPGPGTSGTRRPPPPATLPPESDIDLGPRAYDRFPGDSRDYSTELS",–,2
